Measurements taken from the supplement of paper PMC10567573.

B1: SMTNL2 (parent)
chain: AFTMAENLANCERLIEVEDMMVMG

Variants of: B1
Assay: protein stability index of a GFP-peptide fusion (GPS, HEK-293T) (PSI 1-6); higher = more stable
Conditions: c terminus: a fixed tail appended
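Also: lentivirally expressed fusions sorted by FACS into six bins by GFP to DsRed ratio, PSI derived from sequencing read proportions per bin multiplied by bin number.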

Variant	protein stability index
AFTMAEYLANCERLIEVEDMMVMG [N7Y]	1.62
AFTMAENAANCERLIEVEDMMVMG [L8A]	4.35
AFTMAENCANCERLIEVEDMMVMG [L8C]	3.81
AFTMAENDANCERLIEVEDMMVMG [L8D]	4.36
AFTMAENEANCERLIEVEDMMVMG [L8E]	4.29
AFTMAENFANCERLIEVEDMMVMG [L8F]	3.78
AFTMAENGANCERLIEVEDMMVMG [L8G]	4.02
AFTMAENHANCERLIEVEDMMVMG [L8H]	3.85
AFTMAENIANCERLIEVEDMMVMG [L8I]	2.79
AFTMAENKANCERLIEVEDMMVMG [L8K]	3.98
AFTMAENMANCERLIEVEDMMVMG [L8M]	3.3
AFTMAENNANCERLIEVEDMMVMG [L8N]	3.79
AFTMAENPANCERLIEVEDMMVMG [L8P]	4.09
AFTMAENQANCERLIEVEDMMVMG [L8Q]	4.06
AFTMAENRANCERLIEVEDMMVMG [L8R]	3.38
AFTMAENSANCERLIEVEDMMVMG [L8S]	4.28
AFTMAENTANCERLIEVEDMMVMG [L8T]	3.92
AFTMAENVANCERLIEVEDMMVMG [L8V]	3.14
AFTMAENWANCERLIEVEDMMVMG [L8W]	2.83
AFTMAENYANCERLIEVEDMMVMG [L8Y]	3.22
AFTMAENLCNCERLIEVEDMMVMG [A9C]	2.48
AFTMAENLDNCERLIEVEDMMVMG [A9D]	4.18
AFTMAENLENCERLIEVEDMMVMG [A9E]	3.65
AFTMAENLFNCERLIEVEDMMVMG [A9F]	1.81

Variant	protein stability index
AFTMAENLGNCERLIEVEDMMVMG [A9G]	3.16
AFTMAENLHNCERLIEVEDMMVMG [A9H]	2.34
AFTMAENLINCERLIEVEDMMVMG [A9I]	1.89
AFTMAENLKNCERLIEVEDMMVMG [A9K]	2.3
AFTMAENLLNCERLIEVEDMMVMG [A9L]	2.06
AFTMAENLMNCERLIEVEDMMVMG [A9M]	2.57
AFTMAENLNNCERLIEVEDMMVMG [A9N]	2.49
AFTMAENLPNCERLIEVEDMMVMG [A9P]	3.84
AFTMAENLQNCERLIEVEDMMVMG [A9Q]	2.91
AFTMAENLRNCERLIEVEDMMVMG [A9R]	2.31
AFTMAENLSNCERLIEVEDMMVMG [A9S]	2.64
AFTMAENLTNCERLIEVEDMMVMG [A9T]	2.85
AFTMAENLVNCERLIEVEDMMVMG [A9V]	2.71
AFTMAENLWNCERLIEVEDMMVMG [A9W]	1.39
AFTMAENLYNCERLIEVEDMMVMG [A9Y]	2
AFTMAENLAACERLIEVEDMMVMG [N10A]	1.84
AFTMAENLACCERLIEVEDMMVMG [N10C]	2
AFTMAENLADCERLIEVEDMMVMG [N10D]	2.01
AFTMAENLAECERLIEVEDMMVMG [N10E]	2.01
AFTMAENLAFCERLIEVEDMMVMG [N10F]	2.53
AFTMAENLAGCERLIEVEDMMVMG [N10G]	2.79
AFTMAENLAHCERLIEVEDMMVMG [N10H]	2.19
AFTMAENLAICERLIEVEDMMVMG [N10I]	1.86
AFTMAENLAKCERLIEVEDMMVMG [N10K]	2.48

Variant	protein stability index
AFTMAENLALCERLIEVEDMMVMG [N10L]	1.64
AFTMAENLAMCERLIEVEDMMVMG [N10M]	2.1
AFTMAENLAPCERLIEVEDMMVMG [N10P]	3.37
AFTMAENLAQCERLIEVEDMMVMG [N10Q]	3.5
AFTMAENLARCERLIEVEDMMVMG [N10R]	2.24
AFTMAENLASCERLIEVEDMMVMG [N10S]	2.42
AFTMAENLATCERLIEVEDMMVMG [N10T]	2.19
AFTMAENLAVCERLIEVEDMMVMG [N10V]	2
AFTMAENLAWCERLIEVEDMMVMG [N10W]	1.68
AFTMAENLAYCERLIEVEDMMVMG [N10Y]	2.07
AFTMAENLANAERLIEVEDMMVMG [C11A]	2.21
AFTMAENLANDERLIEVEDMMVMG [C11D]	4.07
AFTMAENLANEERLIEVEDMMVMG [C11E]	3.9
AFTMAENLANFERLIEVEDMMVMG [C11F]	2.56
AFTMAENLANGERLIEVEDMMVMG [C11G]	3.23
AFTMAENLANHERLIEVEDMMVMG [C11H]	3.63
AFTMAENLANIERLIEVEDMMVMG [C11I]	2.3
AFTMAENLANKERLIEVEDMMVMG [C11K]	3.59
AFTMAENLANLERLIEVEDMMVMG [C11L]	2.32
AFTMAENLANMERLIEVEDMMVMG [C11M]	2.95
AFTMAENLANNERLIEVEDMMVMG [C11N]	3.92
AFTMAENLANPERLIEVEDMMVMG [C11P]	3.49
AFTMAENLANQERLIEVEDMMVMG [C11Q]	4.09
AFTMAENLANRERLIEVEDMMVMG [C11R]	3.34

Variant	protein stability index
AFTMAENLANSERLIEVEDMMVMG [C11S]	2.37
AFTMAENLANTERLIEVEDMMVMG [C11T]	2.21
AFTMAENLANVERLIEVEDMMVMG [C11V]	2.75
AFTMAENLANWERLIEVEDMMVMG [C11W]	2.21
AFTMAENLANYERLIEVEDMMVMG [C11Y]	2.51
AFTMAENLANCARLIEVEDMMVMG [E12A]	1.75
AFTMAENLANCCRLIEVEDMMVMG [E12C]	1.55
AFTMAENLANCDRLIEVEDMMVMG [E12D]	3.1
AFTMAENLANCFRLIEVEDMMVMG [E12F]	2.22
AFTMAENLANCGRLIEVEDMMVMG [E12G]	2.06
AFTMAENLANCHRLIEVEDMMVMG [E12H]	2.42
AFTMAENLANCIRLIEVEDMMVMG [E12I]	2.73
AFTMAENLANCKRLIEVEDMMVMG [E12K]	2.46
AFTMAENLANCLRLIEVEDMMVMG [E12L]	1.7
AFTMAENLANCMRLIEVEDMMVMG [E12M]	2.54
AFTMAENLANCNRLIEVEDMMVMG [E12N]	2.93
AFTMAENLANCPRLIEVEDMMVMG [E12P]	2.37
AFTMAENLANCQRLIEVEDMMVMG [E12Q]	2.41
AFTMAENLANCRRLIEVEDMMVMG [E12R]	1.71
AFTMAENLANCSRLIEVEDMMVMG [E12S]	2.92
AFTMAENLANCTRLIEVEDMMVMG [E12T]	2.06
AFTMAENLANCVRLIEVEDMMVMG [E12V]	1.8
